Assay results from article PMC6436938.

What was measured:
[1] = target: Impβ labeled with fluorescent Alexa 488 dye (human) (UniProt Q14974); test: native gel or EMSA
[2] = target: Impβ6M labeled with fluorescent Alexa 488 dye (human) (UniProt Q14974); test: native gel or EMSA
Chain of Impβ6M labeled with fluorescent Alexa 488 dye (human) (Q14974 whole entry L174S/T175A/I178D/E214A/F217A/I218D): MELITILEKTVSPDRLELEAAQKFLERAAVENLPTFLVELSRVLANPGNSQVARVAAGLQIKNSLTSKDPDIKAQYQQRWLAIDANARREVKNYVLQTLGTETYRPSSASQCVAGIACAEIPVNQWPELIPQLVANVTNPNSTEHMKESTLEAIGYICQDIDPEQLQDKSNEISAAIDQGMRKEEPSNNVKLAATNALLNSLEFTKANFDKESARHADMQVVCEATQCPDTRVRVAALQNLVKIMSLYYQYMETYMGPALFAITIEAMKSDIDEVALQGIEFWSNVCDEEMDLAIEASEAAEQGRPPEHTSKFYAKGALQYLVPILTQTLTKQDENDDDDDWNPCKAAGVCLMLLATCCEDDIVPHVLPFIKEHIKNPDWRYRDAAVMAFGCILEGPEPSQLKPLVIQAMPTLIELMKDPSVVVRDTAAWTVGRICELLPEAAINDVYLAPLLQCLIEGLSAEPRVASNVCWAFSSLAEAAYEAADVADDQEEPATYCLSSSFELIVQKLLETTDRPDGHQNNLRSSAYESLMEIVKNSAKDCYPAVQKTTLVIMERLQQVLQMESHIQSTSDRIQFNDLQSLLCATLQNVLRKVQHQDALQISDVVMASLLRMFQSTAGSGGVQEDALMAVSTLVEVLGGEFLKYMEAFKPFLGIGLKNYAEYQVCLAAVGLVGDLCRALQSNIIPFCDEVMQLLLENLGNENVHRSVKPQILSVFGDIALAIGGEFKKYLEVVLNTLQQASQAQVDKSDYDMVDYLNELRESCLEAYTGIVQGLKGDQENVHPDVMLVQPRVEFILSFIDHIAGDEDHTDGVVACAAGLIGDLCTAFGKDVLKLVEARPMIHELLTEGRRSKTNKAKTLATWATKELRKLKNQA

Chain of Impβ labeled with fluorescent Alexa 488 dye (human) (Q14974 whole entry): as the sequence (Q14974 whole entry L174S/T175A/I178D/E214A/F217A/I218D) above, with S174L, A175T, D178I, A214E, A217F, D218I counted along it

Substance	Kd [1] [nM]	Kd [2] [nM]
Imp7 F1028S and F1030S (natural protein)	2890	–
Imp7 F1019S (natural protein)	1220	–
importin α (Impα, Kapα) (from UniProt P52292 1-529) (natural protein)	620	3340
Impα F527S/F529S (from UniProt P52292 1-529) (natural protein)	920	–
